Test results taken from patent US6368828 (US Dept. of Health and Human Services, dated 2002).

Molecular target: the molecule itself
Assay: DSG crosslinking of whole cell lysates; immunoprecipitation and immunoblot with anti-Stat6 serum
Protocol: Effect of Stat6c on endogenous Stat6 dimerization. To elucidate the molecular mechanism of Stat6c's potent transcriptional […], several possibilities were considered. Because endogenous Stat6 tyrosine phosphorylation is only partly diminished by Stat6c, inhibition of IL-4-induced endogenous Stat6 association with IL-4Rα or JAK activation appeared unlikely. […] Therefore, crosslinking studies were performed to investigate whether Stat6c might effect endogenous Stat6 dimerization. Whole cell lysates from IL-4-treated FDC-P2 cells or Stat6 and Stat6c transfectants were incubated with disuccinimidyl glutarate (DSG).

B1: endogenous murine Stat6 (other, UniProt P52633 1-837, looked up)
chain: MSLWGLISKMSPEKLQRLYVDFPQRLRHLLADWLESQPWEFLVGSDAFCYNMASALLSATVQRLQATAGEQGKGNSILPHISTLESIYQRDPLKLVATIRQILQGEKKAVIEEFRHLPGPFHRKQEELKFTTALGRLQHRVRETRLLRESLQQGAKTGQVSLQNLIDPPVNGPGPSEDLATMLQGTVGDLEATQALVLKRIQIWKRQQQLAGNGTPFEESLAGLQERCESLVEIYSQLQQEIGAASGELEPKTRASLISRLDEVLRTLVTSSFLVEKQPPQVLKTQTKFQAGVRFLLGLQFLGTSAKPPMVRADMVTEKQARELSLAQGPGTGVESTGEIMNNTVPLENSIPSNCCSALFKNLLLKKIKRCERKGTESVTEEKCAVLFSTSFTLGPNKLLIQLQALSLPLVVIVHGNQDNNAKATILWDNAFSEMDRVPFVVAERVPWEKMCETLNLKFMAEVGTSRGLLPEHFLFLAQKIFNDNSLSVEAFQHRCVSWSQFNKEILLGRGFTFWQWFDGVLDLTKRCLRSYWSDRLIIGFISKQYVTSLLLNEPDGTFLLRFSDSEIGGITIAHVIRGQDGSSQIENIQPFSAKDLSIRSLGDRIRDLAQLKNLYPKKPKDEAFRSHYKPEQMGKDGRGYVSTTIKMTVERDQPLPTPEPQMPAMVPPYDLGMAPDASMQLSSDMGYPPQSIHSFQSLEESMSVLPSFQEPHLQMPPNMSQITMPFDQPHPQGLLQCQSQEHAVSSPEPMLCSDVTMVEDSCLTQPVGGFPQGTWVSEDMYPPLMPPTEQDLTKLLLENQGEAGGSLGSQPLLQPSPYGQSGISLSHLDLRTNPSW
notes: Endogenous protein in FDC-P2 whole cell lysates; also called endogenous Stat6
binding result: binds
